Consider eight molecules from patent US20210147523A1 (TEIJIN PHARMA, published 2021).

Residue numbers refer to the chain shown, from its start.

T1: Mutant 1 of human SPNS2 (FLAG tag inserted in extracellular loop 1) (human, UniProt Q8IVW8 1-549)
T1 construct: on HEK293 cells; also called extracellular loop 1 mutant
T1 sequence: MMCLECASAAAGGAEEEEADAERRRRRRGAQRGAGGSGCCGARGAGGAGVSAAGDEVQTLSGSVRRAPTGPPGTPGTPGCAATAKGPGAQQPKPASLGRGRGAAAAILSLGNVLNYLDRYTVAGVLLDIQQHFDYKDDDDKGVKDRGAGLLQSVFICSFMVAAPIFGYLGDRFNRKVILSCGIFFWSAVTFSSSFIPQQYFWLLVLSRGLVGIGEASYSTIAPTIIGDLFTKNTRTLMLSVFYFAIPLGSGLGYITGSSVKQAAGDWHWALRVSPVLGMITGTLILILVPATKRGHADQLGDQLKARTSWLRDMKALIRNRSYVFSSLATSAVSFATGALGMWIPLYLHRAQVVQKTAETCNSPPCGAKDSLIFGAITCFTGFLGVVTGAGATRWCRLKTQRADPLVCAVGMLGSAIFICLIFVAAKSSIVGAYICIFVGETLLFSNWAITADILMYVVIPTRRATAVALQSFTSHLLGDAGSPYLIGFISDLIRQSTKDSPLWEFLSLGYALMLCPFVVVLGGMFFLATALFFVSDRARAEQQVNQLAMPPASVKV

T2: mouse SPNS2 (mouse, UniProt Q91VM4 1-549)
T2 construct: on Flp-in 293 cells that also express human SphK1
T2 sequence: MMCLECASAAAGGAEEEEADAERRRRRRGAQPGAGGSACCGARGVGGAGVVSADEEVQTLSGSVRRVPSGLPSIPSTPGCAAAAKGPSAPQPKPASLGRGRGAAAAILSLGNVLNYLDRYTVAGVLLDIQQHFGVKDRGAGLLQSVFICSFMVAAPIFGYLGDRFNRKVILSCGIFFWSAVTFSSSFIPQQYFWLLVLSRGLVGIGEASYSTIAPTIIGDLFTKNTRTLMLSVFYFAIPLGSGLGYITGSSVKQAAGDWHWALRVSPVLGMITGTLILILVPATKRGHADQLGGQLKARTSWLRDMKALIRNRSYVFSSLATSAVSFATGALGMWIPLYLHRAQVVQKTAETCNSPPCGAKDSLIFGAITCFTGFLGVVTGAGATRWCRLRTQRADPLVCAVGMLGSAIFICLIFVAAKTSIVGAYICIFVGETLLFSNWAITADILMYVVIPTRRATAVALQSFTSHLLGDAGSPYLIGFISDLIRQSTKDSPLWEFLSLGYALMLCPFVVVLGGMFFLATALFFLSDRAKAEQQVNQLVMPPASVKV

T3: human SPNS2 (human, UniProt Q8IVW8 1-549)
T3 construct: S1P transporter; in Cell ELISA and S1P assays on Flp-in 293 cells that also express human SphK1; also called Spinster homolog 2; native type
T3 sequence: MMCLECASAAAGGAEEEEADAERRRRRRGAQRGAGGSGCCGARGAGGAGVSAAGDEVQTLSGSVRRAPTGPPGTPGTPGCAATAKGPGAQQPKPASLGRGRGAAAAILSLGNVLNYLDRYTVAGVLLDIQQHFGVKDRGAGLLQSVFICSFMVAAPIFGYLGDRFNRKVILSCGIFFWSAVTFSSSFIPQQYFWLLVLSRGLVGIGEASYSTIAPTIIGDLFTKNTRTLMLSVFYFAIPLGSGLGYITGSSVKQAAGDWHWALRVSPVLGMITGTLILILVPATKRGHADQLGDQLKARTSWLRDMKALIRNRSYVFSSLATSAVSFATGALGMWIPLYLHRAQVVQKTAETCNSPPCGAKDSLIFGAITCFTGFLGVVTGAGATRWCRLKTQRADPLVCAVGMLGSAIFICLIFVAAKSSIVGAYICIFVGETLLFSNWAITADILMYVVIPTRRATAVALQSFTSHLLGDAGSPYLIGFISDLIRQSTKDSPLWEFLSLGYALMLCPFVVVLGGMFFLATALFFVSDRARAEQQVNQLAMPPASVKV

B1: 50-0704C (antibody, IgG2b, V domains shown)
VH: EVQLVGSGGGLVQPGRSMKLSCEASGFTFSNHYMAWVRQAPTKGLEWVATISTGGGNTYYRDSVKGRFTISRDNARSTLSLQMDSLRSEDTATYYCARQDYSNYMGGFAYWGQGTLVTVSS
VL: QFVLTQPNSVSTNLGSTVKLSCTRSIGNIGNNYVNWYKQYEGRSPTTMIYRDDERPDGVPDRFSGSIDRSSNSALLTINSVQTEDEADYFCQSFSSGIFIFGGGTKLTVL
B2: 18-0211B (antibody, IgG2b, V domains shown)
VH: B1 VH with E1A, K43R, A75T, A97T, S102T
VL: B1 VL with M48L, E86G, K106T
B3: 89-1207D (antibody, IgG2b, V domains shown)
VH: B1 VH with T78I
VL: B1 VL with S80N, I98M
B4: 64-0807A (antibody, IgG2b, V domains shown)
VH: EVQVVESGGGLVQPGRSMKLSCAALGFTFRDYYMAWVRQTPTKGLEWVAAISTGGGNTYYRDSVKGRFTISRDNAKSTLYLQMDSLRSDDTATYYCARNPYGNYFDYWGQGVMVTVSS
VL: QFVLSQPNSVSTNLGSTVKLSCKRSTGNIGSNYVHWYQRHEGRSPTTLIYRDDKRPNGVPDRFSGSIDRSSNSALLTINNVQTEDEADYFCQSYSGGMYLFGGGTKLTVL
B5: 84-1111F (antibody, IgG2b, V domains shown)
VH: B4 VH with Q82K
VL: B4 VL with L48M, K106T
B6: 65-0810G (antibody, IgG2b, V domains shown)
VH: EVHLVESGGGLVQPGRSMKLSCTASGFTFNNYYMAWVRQAPTKGLEWVASISTGGGYTYYRDSVKGRFTISRDNTGNTLYLQMDSLRSEDTATYYCARCWELPYWGQGVMVTVSS
VL: QFVLTQPNSVSTNLGSTVKLSCRRSSGNIGNNYVNWYRQHEGRSPTTMIYRDDTRPDGVPNRFSGSIDRSSNSALLTINNVRPEDEAYYFCQSYSGSIYIFGGGTKLTVL
B7: 37-0511F (antibody, IgG2b, V domains shown)
VH: EVHLQQSGAALVRPRASVKLSCKVSGDSISRYYVHFVKQRPGQGLEWIGRIDPEDDTTKYSEKFKNRATLTADASSDTASLILSGLTSDDTATYFCSTLTGLDYWGQGVMVTVSS
VL: DIQMTQSPPVLSTSVGDRVTLRCKPSQNVHSKLDWYQQKHGEAPKLLIYYTHNLQTGIPSRFSGSGSGTDYTLTISSLQPEDVATYYCFQYYSGWTFGGGTKLEMKR
B8: 53-0707E (antibody, IgG2b, V domains shown)
VH: B7 VH with H3Q, A10E, A16T, S30T, N66K, R67K, D77N, S80Y, L83F, D89E
VL: B7 VL with P25A

The first assay addresses T1, Mutant 1 of human SPNS2 (FLAG tag …). Nature of the assay: flow cytometry, FLAG-insertion mutant. The protocol:
After the lipofection, the HEK 293 cells cultivated overnight were recovered from the culture dishes, and reacted with a cell staining buffer (BioLegend, 420201) containing an anti-FLAG antibody (Sigma-Aldrich, F1804) and an anti-SPNS2 antibody each in a volume of 20 μg/mL for 30 minutes at room temperature. After washing with a cell staining buffer one time, the anti-FLAG antibody was detected with an anti-mouse IgG-Alexa 647 conjugate antibody, and the anti-SPNS2 antibody was detected with an anti-rat IgG-FITC conjugate antibody with flow cytometer BD LSR Fortessa (Becton Dickinson). The binding ability to each mutant was evaluated with the ratio of the FITC-positive cell rate to the Alexa 647-positive cell rate. In Table 7, symbol (+) indicates a ratio of less than 0.1, symbol (±) indicates a ratio of 0.1 or more and less than 0.5, and symbol (−) indicate a ratio of 0.5 or more.
In general terms: A flow cytometer gives signals particle by particle.
Regarding B1, the “FITC+/Alexa 647+ cell rate ratio” value was < 0.1 ratio.
Regarding B2, the “FITC+/Alexa 647+ cell rate ratio” value was < 0.1 ratio.
On the same count and under the same terms, to B3 belongs < 0.1 ratio; to B4, < 0.1 ratio.
On the same count and under the same terms, with B5 the figure was < 0.1 ratio; with B6, < 0.1 ratio.
As to B7, the “FITC+/Alexa 647+ cell rate ratio” value is < 0.1 ratio.
B8: the “FITC+/Alexa 647+ cell rate ratio” value is < 0.1 ratio.

For a further assay, the target named is T2, mouse SPNS2. In words: Cell ELISA. On the procedure:
(§1) Human and mouse SPNS2 and human SphK1 double stable expression Flp-in 293 cells were added to a poly D lysine coat 96-well plate (Corning, 356461) in a density of 1×10⁵ cells/well and was cultivated overnight, and then the culture medium was removed. An anti-SPNS2 antibody solution was adjusted into 20 μg/mL using 0.2% FBS/3% BSA/PBS, and 0.2% FBS/3% BSA/PBS (60 μL) was added to the antibody diluted solution (20 μL) to prepare seven-step diluted solutions by four fold serial dilution. Each diluted solution of the anti-SPNS2 antibody was added in a volume of 30 μL/well, and reacted for about one hour at room temperature. The antibody solution was removed, and the residue was washed with PBS containing 0.05% Tween 20 (PBS-T) two times, and fixed for about ten minutes at room temperature using 10% buffered formalin (Mildform (Trade mark) 10NM, Wako). After washing with PBS-T one time, a 5000-fold diluted solution of anti-rat IgG antibody HRP conjugate (Southern Biotech, 3030-05) in 0.2% FBS/3% BSA/PBS was added to each well (30 μL), and reacted for about one hour at room temperature. After washing with PBS-T four times, a substrate (TMB; 3, 3′, 5, 5′-tetramethylbenzidin) was added to each well (100 μL) to initiate the reaction. After 20 minutes, 2N sulfuric acid was added to each well (100 μL), and absorbance at 450 nm and 550 nm was measured. […] Each antibody bound to human SPNS2 and mouse SPNS2.
As to B1, the Emax turned out to be 1.9 absorbance and the pEC50 was 7.75 pEC50 (M).
Turning to B2, the Emax was 1.61 absorbance and the pEC50 is 8.37 pEC50 (M).
Regarding B3, the Emax worked out at 1.85 absorbance and the pEC50 is 7.72 pEC50 (M).
In the same order, the values of B4 are 1.88 absorbance and 7.83 pEC50 (M).
The matching figures for B5: 1.55 absorbance and 8.65 pEC50 (M).
The matching figures for B6: 1.54 absorbance and 8.15 pEC50 (M).
On to B7, for which the Emax amounted to 1.29 absorbance and the pEC50 is 8.01 pEC50 (M).
The matching figures for B8: 1.43 absorbance and 7.82 pEC50 (M).

A further assay has as its target T3, human SPNS2. Nature of the assay: Cell ELISA. The protocol: as §1
Background: In an ELISA, binding on a coated surface is turned into a signal by an enzyme label.
In the case of B1, the Emax amounted to 1.82 absorbance and the pEC50 was 8.15 pEC50 (M).
As to B2, the Emax amounted to 1.72 absorbance and the pEC50 is 8.59 pEC50 (M).
In the same order, the values of B3 are 2.03 absorbance and 7.97 pEC50 (M).
In the same order, the values of B4 are 1.83 absorbance and 8.07 pEC50 (M).
In the same order, the values of B5 are 1.68 absorbance and 8.75 pEC50 (M).
B6: the Emax came to 1.7 absorbance and the pEC50 is 8.36 pEC50 (M).
In the same order, the values of B7 are 1.35 absorbance and 8.2 pEC50 (M).
In the same order, the values of B8 are 1.62 absorbance and 7.87 pEC50 (M).
